Measurements as given in article PMC4931249.

Target: WT BG505 SOSIP.664 gp140 trimer (HIV-1 clade-A BG505)
Assay: negative-stain EM

WT BG505 SOSIP.664 gp140 trimer (complex)
stoichiometry N: 3
